Laboratory results from patent US20180142030A1 (Bristol-Myers Squibb, published 2018).

T1: FcγRIIb (human, UniProt P31994 43-217, limits assumed)
T1 construct: Construct not described; also called hCD32b/FcγRIIb
T1 sequence (looked up): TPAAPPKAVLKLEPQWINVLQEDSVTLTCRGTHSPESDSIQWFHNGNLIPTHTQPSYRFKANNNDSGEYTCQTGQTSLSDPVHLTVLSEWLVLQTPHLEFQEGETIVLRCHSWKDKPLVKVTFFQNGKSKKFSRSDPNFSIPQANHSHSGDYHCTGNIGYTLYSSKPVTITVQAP

T2: FcγRIIa-H131 (human, UniProt P12318 34-218, limits assumed)
T2 construct: Construct not described; also called hCD32a/FcγRIIa-H131
T2 sequence (looked up): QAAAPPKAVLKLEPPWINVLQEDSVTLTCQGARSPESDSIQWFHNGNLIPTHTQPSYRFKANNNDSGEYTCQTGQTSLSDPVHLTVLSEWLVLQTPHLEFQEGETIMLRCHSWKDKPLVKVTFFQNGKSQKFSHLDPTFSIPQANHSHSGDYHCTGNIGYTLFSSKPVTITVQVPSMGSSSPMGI

T3: FcγRIIa-R131 (human, UniProt P12318 34-218, limits assumed)
T3 construct: Construct not described
T3 sequence (looked up): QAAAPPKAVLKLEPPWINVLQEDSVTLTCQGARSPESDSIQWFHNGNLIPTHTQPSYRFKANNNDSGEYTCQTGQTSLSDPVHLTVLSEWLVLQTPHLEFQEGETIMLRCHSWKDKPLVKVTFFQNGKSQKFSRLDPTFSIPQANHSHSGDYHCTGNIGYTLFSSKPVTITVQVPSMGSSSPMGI


What was measured:
FcγRIIb = target: T1, FcγRIIb; test: BLI (ForteBio Octet), %Rmax at 1 µM hCD32b/FcγRIIb
Method: (§1) See Example 8. Antibody names including “-sup” represent supernatants from antibody producing cells, whereas others are purified antibodies. Data are presented as percentages of a maximum receptor binding value for each combination of antibody and receptor, as measured in a ForteBio Octet system. See, e.g., Example 3. Each cluster of three bars represents, from left to right, binding to hCD32a/FcγRIIa-H131 (10 μM) (hatched bars), […] (10 μM) (black bars), and hCD32b/FcγRIIb (1 μM) (white bars).
(§2) Supernatants were obtained from cells expressing these antibodies and assayed for binding to hCD32/FcγRII. Selected purified antibodies without mutations at position 270 were used as controls.

FcγRIIa-H131 = target: T2, FcγRIIa-H131; test: BLI (ForteBio Octet), %Rmax at 10 µM hCD32a/FcγRIIa-H131
Method: as §1, §2

FcγRIIa-R131 = target: T3, FcγRIIa-R131; test: BLI (ForteBio Octet), %Rmax at 10 µM FcγRIIa-R131 (CD32a-R131 on the sheet)
Method: as §1, §2

| binding result (FcγRIIb) | binding result (FcγRIIa-H131) | binding result (FcγRIIa-R131) | Binder |
| --- | --- | --- | --- |
| binds | binds | binds | 12D6-24 V9 (antibody, human IgG1, kappa) heavy: QVQLVQSGAEVKKPGASVKVSCKASGYTFTGYNMNWVRQAPGQGLEWMGNIDPYYGNTNYNQKFKGRVTMTTDTSTSTAYMELRSLRSDDTAVYYCARLGLQLYALDYWGQGTTVTVSSASTKGPSVFPLAPSSKSTSGGTAALGCLVKDYFPEPVTVSWNSGALTSGVHTFPAVLQSSGLYSLSSVVTVPSSSLGTQTYICNVNHKPSNTKVDKRVEPKSCDKTHTCPPCPAPELLGDDSVFLFPPKPKDTLMISRTPEVTCVVVDVSHEDGEVKFNWYVDGVEVHNAKTKPREEQYNSTYRVVSVLTVLHQDWLNGKEYKCKVSNKALPRPIEKTISKAKGQPREPQVYTLPPSREEMTKNQVSLTCLVKGFYPSDIAVEWESNGQPENNYKTTPPVLDSDGSFFLYSKLTVDKSRWQQGNVFSCSVMHEALHNHYTQKSLSLSPG light: DIVMTQTPLSLPVTPGEPASISCRSSQSLVHSNANTYLHWYLQKPGQSPQLLIYKLTNRFFGVPDRFSGSGSGTDFTLKISRVEAEDVGVYYCSQSIHVPWTFGGGTKVEIKRTVAAPSVFIFPPSDEQLKSGTASVVCLLNNFYPREAKVQWKVDNALQSGNSQESVTEQDSKDSTYSLSSTLTLSKADYEKHKVYACEVTHQGLSSPVTKSFNRGEC |
| binds | binds | binds | 12D6-24-V9-DA-sup (antibody, Tested as supernatant of antibody-producing cells; also called 12D6-24 V9 D270A; copies: 2 + 2) heavy: QVQLVQSGAEVKKPGASVKVSCKASGYTFTGYNMNWVRQAPGQGLEWMGNIDPYYGNTNYNQKFKGRVTMTTDTSTSTAYMELRSLRSDDTAVYYCARLGLQLYALDYWGQGTTVTVSSASTKGPSVFPLAPSSKSTSGGTAALGCLVKDYFPEPVTVSWNSGALTSGVHTFPAVLQSSGLYSLSSVVTVPSSSLGTQTYICNVNHKPSNTKVDKRVEPKSCDKTHTCPPCPAPELLGDDSVFLFPPKPKDTLMISRTPEVTCVVVDVSHEAGEVKFNWYVDGVEVHNAKTKPREEQYNSTYRVVSVLTVLHQDWLNGKEYKCKVSNKALPRPIEKTISKAKGQPREPQVYTLPPSREEMTKNQVSLTCLVKGFYPSDIAVEWESNGQPENNYKTTPPVLDSDGSFFLYSKLTVDKSRWQQGNVFSCSVMHEALHNHYTQKSLSLSPG light: DIVMTQTPLSLPVTPGEPASISCRSSQSLVHSNANTYLHWYLQKPGQSPQLLIYKLTNRFFGVPDRFSGSGSGTDFTLKISRVEAEDVGVYYCSQSIHVPWTFGGGTKVEIKRTVAAPSVFIFPPSDEQLKSGTASVVCLLNNFYPREAKVQWKVDNALQSGNSQESVTEQDSKDSTYSLSSTLTLSKADYEKHKVYACEVTHQGLSSPVTKSFNRGEC |
| binds | binds | binds | 12D6-24-V9-DS-sup (antibody, Tested as supernatant of antibody-producing cells; also called 12D6-24 V9 D270S; copies: 2 + 2) heavy: QVQLVQSGAEVKKPGASVKVSCKASGYTFTGYNMNWVRQAPGQGLEWMGNIDPYYGNTNYNQKFKGRVTMTTDTSTSTAYMELRSLRSDDTAVYYCARLGLQLYALDYWGQGTTVTVSSASTKGPSVFPLAPSSKSTSGGTAALGCLVKDYFPEPVTVSWNSGALTSGVHTFPAVLQSSGLYSLSSVVTVPSSSLGTQTYICNVNHKPSNTKVDKRVEPKSCDKTHTCPPCPAPELLGDDSVFLFPPKPKDTLMISRTPEVTCVVVDVSHESGEVKFNWYVDGVEVHNAKTKPREEQYNSTYRVVSVLTVLHQDWLNGKEYKCKVSNKALPRPIEKTISKAKGQPREPQVYTLPPSREEMTKNQVSLTCLVKGFYPSDIAVEWESNGQPENNYKTTPPVLDSDGSFFLYSKLTVDKSRWQQGNVFSCSVMHEALHNHYTQKSLSLSPG light: DIVMTQTPLSLPVTPGEPASISCRSSQSLVHSNANTYLHWYLQKPGQSPQLLIYKLTNRFFGVPDRFSGSGSGTDFTLKISRVEAEDVGVYYCSQSIHVPWTFGGGTKVEIKRTVAAPSVFIFPPSDEQLKSGTASVVCLLNNFYPREAKVQWKVDNALQSGNSQESVTEQDSKDSTYSLSSTLTLSKADYEKHKVYACEVTHQGLSSPVTKSFNRGEC |
| binds | binds | binds | 12D6-24-V9-DQ-sup (antibody, Tested as supernatant of antibody-producing cells; also called 12D6-24 V9 D270Q; copies: 2 + 2) heavy: QVQLVQSGAEVKKPGASVKVSCKASGYTFTGYNMNWVRQAPGQGLEWMGNIDPYYGNTNYNQKFKGRVTMTTDTSTSTAYMELRSLRSDDTAVYYCARLGLQLYALDYWGQGTTVTVSSASTKGPSVFPLAPSSKSTSGGTAALGCLVKDYFPEPVTVSWNSGALTSGVHTFPAVLQSSGLYSLSSVVTVPSSSLGTQTYICNVNHKPSNTKVDKRVEPKSCDKTHTCPPCPAPELLGDDSVFLFPPKPKDTLMISRTPEVTCVVVDVSHEQGEVKFNWYVDGVEVHNAKTKPREEQYNSTYRVVSVLTVLHQDWLNGKEYKCKVSNKALPRPIEKTISKAKGQPREPQVYTLPPSREEMTKNQVSLTCLVKGFYPSDIAVEWESNGQPENNYKTTPPVLDSDGSFFLYSKLTVDKSRWQQGNVFSCSVMHEALHNHYTQKSLSLSPG light: DIVMTQTPLSLPVTPGEPASISCRSSQSLVHSNANTYLHWYLQKPGQSPQLLIYKLTNRFFGVPDRFSGSGSGTDFTLKISRVEAEDVGVYYCSQSIHVPWTFGGGTKVEIKRTVAAPSVFIFPPSDEQLKSGTASVVCLLNNFYPREAKVQWKVDNALQSGNSQESVTEQDSKDSTYSLSSTLTLSKADYEKHKVYACEVTHQGLSSPVTKSFNRGEC |
| binds | binds | binds | 12D6-24 V9 D270E (antibody, human IgG1, kappa) heavy: QVQLVQSGAEVKKPGASVKVSCKASGYTFTGYNMNWVRQAPGQGLEWMGNIDPYYGNTNYNQKFKGRVTMTTDTSTSTAYMELRSLRSDDTAVYYCARLGLQLYALDYWGQGTTVTVSSASTKGPSVFPLAPSSKSTSGGTAALGCLVKDYFPEPVTVSWNSGALTSGVHTFPAVLQSSGLYSLSSVVTVPSSSLGTQTYICNVNHKPSNTKVDKRVEPKSCDKTHTCPPCPAPELLGDDSVFLFPPKPKDTLMISRTPEVTCVVVDVSHEEGEVKFNWYVDGVEVHNAKTKPREEQYNSTYRVVSVLTVLHQDWLNGKEYKCKVSNKALPRPIEKTISKAKGQPREPQVYTLPPSREEMTKNQVSLTCLVKGFYPSDIAVEWESNGQPENNYKTTPPVLDSDGSFFLYSKLTVDKSRWQQGNVFSCSVMHEALHNHYTQKSLSLSPG light: DIVMTQTPLSLPVTPGEPASISCRSSQSLVHSNANTYLHWYLQKPGQSPQLLIYKLTNRFFGVPDRFSGSGSGTDFTLKISRVEAEDVGVYYCSQSIHVPWTFGGGTKVEIKRTVAAPSVFIFPPSDEQLKSGTASVVCLLNNFYPREAKVQWKVDNALQSGNSQESVTEQDSKDSTYSLSSTLTLSKADYEKHKVYACEVTHQGLSSPVTKSFNRGEC |
| binds | binds | binds | 5F11-45 V9 (antibody, human IgG1, kappa) heavy: QVQLVQSGAEVKKPGSSVKVSCKASGYTFTDLSMHWVRQAPGQGLEWMGYITPSSGYTAYNQKFKGKTTLTADKSTSTAYMELSSLRSEDTAVYYCARLILQRGAYWGQGTLVTVSSASTKGPSVFPLAPSSKSTSGGTAALGCLVKDYFPEPVTVSWNSGALTSGVHTFPAVLQSSGLYSLSSVVTVPSSSLGTQTYICNVNHKPSNTKVDKRVEPKSCDKTHTCPPCPAPELLGDDSVFLFPPKPKDTLMISRTPEVTCVVVDVSHEDGEVKFNWYVDGVEVHNAKTKPREEQYNSTYRVVSVLTVLHQDWLNGKEYKCKVSNKALPRPIEKTISKAKGQPREPQVYTLPPSREEMTKNQVSLTCLVKGFYPSDIAVEWESNGQPENNYKTTPPVLDSDGSFFLYSKLTVDKSRWQQGNVFSCSVMHEALHNHYTQKSLSLSPG light: DIVLTQSPDSLAVSLGERATINCRASKNVDSYGNSFMHWYQQKPGQPPKLLIYRASNLESGVPDRFSGSGSGTDFTLTISSLQAEDVAVYYCQQSNEDPLTFGQGTKLEIKRTVAAPSVFIFPPSDEQLKSGTASVVCLLNNFYPREAKVQWKVDNALQSGNSQESVTEQDSKDSTYSLSSTLTLSKADYEKHKVYACEVTHQGLSSPVTKSFNRGEC |
| binds | binds | binds | 5F11-45 V4 (antibody, human IgG1, kappa) heavy: not shown light: DIVLTQSPDSLAVSLGERATINCRASKNVDSYGNSFMHWYQQKPGQPPKLLIYRASNLESGVPDRFSGSGSGTDFTLTISSLQAEDVAVYYCQQSNEDPLTFGQGTKLEIKRTVAAPSVFIFPPSDEQLKSGTASVVCLLNNFYPREAKVQWKVDNALQSGNSQESVTEQDSKDSTYSLSSTLTLSKADYEKHKVYACEVTHQGLSSPVTKSFNRGEC |
